Consider one substance from PMC5072618.

The target of experiment [1] is IFI16 (gamma-interferon-inducible protein 16) (human (endogenous in HMVEC-d, HFF, BJAB, BCBL-1)) (UniProt Q16666). Briefly: co-IP; whole cell lysates of KSHV infected HMVEC-d cells (4 h; 30 min, 4 and 24 h for the p300 blot); IP with anti-Ran, anti-IFI16, anti-STING or anti-ASC antibodies; cells untreated or electroporated with siC, sicGAS or siASC.
The target is the same in experiment [2]. The experiment is described as follows: co-IP; whole cell lysates of KSHV infected HMVEC-d cells electroporated with siBRCA1 (48 h); IP with anti-IFI16 antibody.

Chain of UniProt Q16666 (Q16666 whole entry): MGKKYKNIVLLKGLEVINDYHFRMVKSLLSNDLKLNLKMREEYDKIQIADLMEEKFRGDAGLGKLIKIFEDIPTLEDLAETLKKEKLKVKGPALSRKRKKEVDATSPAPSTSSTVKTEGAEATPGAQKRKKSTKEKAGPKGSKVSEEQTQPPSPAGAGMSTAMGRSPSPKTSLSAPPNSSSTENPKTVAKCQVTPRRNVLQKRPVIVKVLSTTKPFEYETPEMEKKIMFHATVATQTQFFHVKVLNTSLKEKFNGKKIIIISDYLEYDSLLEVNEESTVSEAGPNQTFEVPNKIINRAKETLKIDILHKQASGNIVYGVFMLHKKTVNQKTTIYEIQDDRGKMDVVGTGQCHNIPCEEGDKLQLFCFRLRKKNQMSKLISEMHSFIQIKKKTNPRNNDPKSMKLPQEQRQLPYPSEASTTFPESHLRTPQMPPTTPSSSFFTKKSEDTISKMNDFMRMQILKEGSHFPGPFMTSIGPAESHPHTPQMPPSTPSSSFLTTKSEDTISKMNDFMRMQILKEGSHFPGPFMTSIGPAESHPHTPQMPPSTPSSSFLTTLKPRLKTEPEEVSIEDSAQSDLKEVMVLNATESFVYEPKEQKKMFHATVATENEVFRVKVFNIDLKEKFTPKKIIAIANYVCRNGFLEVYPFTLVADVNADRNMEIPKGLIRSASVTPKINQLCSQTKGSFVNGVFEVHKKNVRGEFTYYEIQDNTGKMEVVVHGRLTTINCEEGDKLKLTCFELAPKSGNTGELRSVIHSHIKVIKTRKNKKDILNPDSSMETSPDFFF

In the case of “histone H2B (from UniProt P62807 1-126) (natural protein)”, in experiment [1], the reduction of the IFI16-H2B co-precipitate on cGAS knockdown came out at 25%. The substance further returned a reduction of the IFI16-H2B co-precipitate on BRCA1 knockdown in experiment [2] of 40%.
